According to patent US20020173640A1, “ADAM polynucleotides, polypeptides, and antibodies” (Human Genome Sciences, Inc., priority 1999, published 2002):
Square brackets hold non-standard residues; d marks the D form. Peptide text beside a SMILES is read from it. * marks the point of attachment. 4Abz = Nc1ccc(C(=O)O)cc1; NHOH = ON*

Columns and labels:
[1] = molecular target: T1, hADAM-19 (Homo sapiens, UniProt Q9H013); test: Inhibition of α2-M cleavage by hADAM-19 (SDS-PAGE, silver staining); format: biochemical; settings: for blockage of hADAM-19 proteolytic activity against α2-M: summary statement, concentration not given
T1 construct: made in house
T1 sequence (Q9H013 26-701 isoform Q9H013-2): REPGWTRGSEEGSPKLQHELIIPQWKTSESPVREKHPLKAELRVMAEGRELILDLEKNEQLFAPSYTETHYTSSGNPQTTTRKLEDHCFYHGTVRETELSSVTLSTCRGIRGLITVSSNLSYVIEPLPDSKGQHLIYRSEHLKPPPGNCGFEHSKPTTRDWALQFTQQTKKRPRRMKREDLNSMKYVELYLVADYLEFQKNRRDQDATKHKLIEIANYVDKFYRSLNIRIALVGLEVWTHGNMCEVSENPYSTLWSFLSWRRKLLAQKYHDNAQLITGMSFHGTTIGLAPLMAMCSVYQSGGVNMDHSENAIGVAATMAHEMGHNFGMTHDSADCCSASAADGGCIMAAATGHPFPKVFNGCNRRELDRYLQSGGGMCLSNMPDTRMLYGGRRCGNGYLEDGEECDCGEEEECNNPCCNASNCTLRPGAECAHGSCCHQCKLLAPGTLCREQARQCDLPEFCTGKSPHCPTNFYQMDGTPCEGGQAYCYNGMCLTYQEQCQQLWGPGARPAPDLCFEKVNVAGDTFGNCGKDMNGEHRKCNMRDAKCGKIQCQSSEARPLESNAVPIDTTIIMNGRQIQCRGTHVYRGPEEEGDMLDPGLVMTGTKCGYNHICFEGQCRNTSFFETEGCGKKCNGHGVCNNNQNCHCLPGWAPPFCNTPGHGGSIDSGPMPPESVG
Method: 20 mM EDTA, 20 rmiM EGTA, 10 mM HgCl2, 1 miM TIMP-1,-2 (TIMP: hADAM-19 molar ratio was 100:1) and three commercial (CALBIOCHEM) small molecule human MMP inhibitors were used to inhibit α2-M cleavage by hADAM-19. […] Briefly, different concentrations of those inhibitors were mixed with 7.5 μl of hADAM-19 (50 μg/ml) in 22.9 μl of 1× HEPES buffer (50 mM HEPES, pH 7.5, 0.2 M NaCl, 10 mM CaCl2, 25 μM ZnCl, and 0.05%Brij-35) and incubated at room temperature (24° C.) for 2-hr, then 7.1 μl of substrate α2-M (0.2 unit/ml) were added and incubated at 37° C. for 20-hr. The reactions were stopped by adding 4× sample bufer and boiled immediately for 5 minutes. After SDS-PAGE, the protein bands were visualized by silver staining.

[2] = molecular target: MMP-3 (Homo sapiens, UniProt P08254); settings: commercial (CALBIOCHEM) inhibitor data; read-out: IC50 against MMP-3; cited from earlier work
[3] = molecular target: MMP-9 (Homo sapiens, UniProt P14780); settings: commercial (CALBIOCHEM) inhibitor data; read-out: IC50 against MMP-9; cited from earlier work
[4] = molecular target: MMP-8 (Homo sapiens, UniProt P22894); settings: commercial (CALBIOCHEM) inhibitor data; read-out: IC50 against MMP-8; cited from earlier work
[5] = molecular target: MMP-1 (Homo sapiens, UniProt P03956); settings: commercial (CALBIOCHEM) inhibitor data; read-out: IC50 against MMP-1; cited from earlier work
[6] = system: viruses containing the K103N mutation; settings: cited from earlier work
[7] = system: HIV; settings: greater activity than its predecessor delavirdine; cited from earlier work
[8] = molecular target: T2, Bovine plasma alpha-2-macroglobulin (UniProt Q7SIH1)
T2 sequence: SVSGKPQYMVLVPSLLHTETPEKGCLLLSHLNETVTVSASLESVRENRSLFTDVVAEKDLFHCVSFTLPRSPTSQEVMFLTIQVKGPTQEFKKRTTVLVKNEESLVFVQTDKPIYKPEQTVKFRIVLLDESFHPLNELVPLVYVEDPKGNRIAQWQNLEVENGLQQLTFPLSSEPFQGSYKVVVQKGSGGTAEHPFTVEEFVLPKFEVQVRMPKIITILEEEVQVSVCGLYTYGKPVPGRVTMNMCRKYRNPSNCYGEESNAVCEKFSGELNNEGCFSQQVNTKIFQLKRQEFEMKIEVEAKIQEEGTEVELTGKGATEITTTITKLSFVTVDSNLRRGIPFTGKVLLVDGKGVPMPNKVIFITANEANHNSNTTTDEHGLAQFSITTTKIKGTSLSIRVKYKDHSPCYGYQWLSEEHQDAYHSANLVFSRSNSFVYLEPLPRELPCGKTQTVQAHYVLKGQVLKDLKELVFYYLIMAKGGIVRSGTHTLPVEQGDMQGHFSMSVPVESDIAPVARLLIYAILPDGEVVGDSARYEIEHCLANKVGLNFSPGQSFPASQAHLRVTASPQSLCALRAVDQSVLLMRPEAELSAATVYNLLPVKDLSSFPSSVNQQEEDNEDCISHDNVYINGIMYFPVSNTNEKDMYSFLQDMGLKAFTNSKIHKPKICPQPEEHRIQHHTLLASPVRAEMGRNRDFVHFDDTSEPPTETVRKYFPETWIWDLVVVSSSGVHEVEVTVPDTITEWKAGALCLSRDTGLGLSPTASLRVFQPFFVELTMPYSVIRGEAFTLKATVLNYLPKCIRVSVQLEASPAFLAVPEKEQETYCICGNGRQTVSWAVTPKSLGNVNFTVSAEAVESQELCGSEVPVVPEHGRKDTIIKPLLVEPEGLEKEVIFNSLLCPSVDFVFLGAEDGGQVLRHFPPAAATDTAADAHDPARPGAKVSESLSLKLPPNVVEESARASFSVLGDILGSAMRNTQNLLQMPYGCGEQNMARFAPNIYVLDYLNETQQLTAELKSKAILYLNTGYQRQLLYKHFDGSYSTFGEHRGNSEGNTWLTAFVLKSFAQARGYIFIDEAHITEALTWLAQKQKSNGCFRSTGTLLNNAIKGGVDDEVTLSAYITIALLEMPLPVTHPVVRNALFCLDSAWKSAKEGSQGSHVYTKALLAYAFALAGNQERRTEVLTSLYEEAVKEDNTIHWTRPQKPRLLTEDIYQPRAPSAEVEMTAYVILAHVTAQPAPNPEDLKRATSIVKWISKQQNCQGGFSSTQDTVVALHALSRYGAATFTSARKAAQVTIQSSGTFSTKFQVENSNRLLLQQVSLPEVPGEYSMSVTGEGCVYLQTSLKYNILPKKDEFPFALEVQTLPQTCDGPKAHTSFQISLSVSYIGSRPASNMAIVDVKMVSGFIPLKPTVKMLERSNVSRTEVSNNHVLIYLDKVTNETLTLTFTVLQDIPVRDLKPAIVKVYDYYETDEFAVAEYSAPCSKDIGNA

[9] = molecular target: Mca fluorogenic peptide substrate M-2105
[10] = molecular target: Mca fluorogenic peptide substrate M-1985
[11] = molecular target: T3, Bovine plasma alpha-2-macroglobulin, Q7SIH1
T3 chain: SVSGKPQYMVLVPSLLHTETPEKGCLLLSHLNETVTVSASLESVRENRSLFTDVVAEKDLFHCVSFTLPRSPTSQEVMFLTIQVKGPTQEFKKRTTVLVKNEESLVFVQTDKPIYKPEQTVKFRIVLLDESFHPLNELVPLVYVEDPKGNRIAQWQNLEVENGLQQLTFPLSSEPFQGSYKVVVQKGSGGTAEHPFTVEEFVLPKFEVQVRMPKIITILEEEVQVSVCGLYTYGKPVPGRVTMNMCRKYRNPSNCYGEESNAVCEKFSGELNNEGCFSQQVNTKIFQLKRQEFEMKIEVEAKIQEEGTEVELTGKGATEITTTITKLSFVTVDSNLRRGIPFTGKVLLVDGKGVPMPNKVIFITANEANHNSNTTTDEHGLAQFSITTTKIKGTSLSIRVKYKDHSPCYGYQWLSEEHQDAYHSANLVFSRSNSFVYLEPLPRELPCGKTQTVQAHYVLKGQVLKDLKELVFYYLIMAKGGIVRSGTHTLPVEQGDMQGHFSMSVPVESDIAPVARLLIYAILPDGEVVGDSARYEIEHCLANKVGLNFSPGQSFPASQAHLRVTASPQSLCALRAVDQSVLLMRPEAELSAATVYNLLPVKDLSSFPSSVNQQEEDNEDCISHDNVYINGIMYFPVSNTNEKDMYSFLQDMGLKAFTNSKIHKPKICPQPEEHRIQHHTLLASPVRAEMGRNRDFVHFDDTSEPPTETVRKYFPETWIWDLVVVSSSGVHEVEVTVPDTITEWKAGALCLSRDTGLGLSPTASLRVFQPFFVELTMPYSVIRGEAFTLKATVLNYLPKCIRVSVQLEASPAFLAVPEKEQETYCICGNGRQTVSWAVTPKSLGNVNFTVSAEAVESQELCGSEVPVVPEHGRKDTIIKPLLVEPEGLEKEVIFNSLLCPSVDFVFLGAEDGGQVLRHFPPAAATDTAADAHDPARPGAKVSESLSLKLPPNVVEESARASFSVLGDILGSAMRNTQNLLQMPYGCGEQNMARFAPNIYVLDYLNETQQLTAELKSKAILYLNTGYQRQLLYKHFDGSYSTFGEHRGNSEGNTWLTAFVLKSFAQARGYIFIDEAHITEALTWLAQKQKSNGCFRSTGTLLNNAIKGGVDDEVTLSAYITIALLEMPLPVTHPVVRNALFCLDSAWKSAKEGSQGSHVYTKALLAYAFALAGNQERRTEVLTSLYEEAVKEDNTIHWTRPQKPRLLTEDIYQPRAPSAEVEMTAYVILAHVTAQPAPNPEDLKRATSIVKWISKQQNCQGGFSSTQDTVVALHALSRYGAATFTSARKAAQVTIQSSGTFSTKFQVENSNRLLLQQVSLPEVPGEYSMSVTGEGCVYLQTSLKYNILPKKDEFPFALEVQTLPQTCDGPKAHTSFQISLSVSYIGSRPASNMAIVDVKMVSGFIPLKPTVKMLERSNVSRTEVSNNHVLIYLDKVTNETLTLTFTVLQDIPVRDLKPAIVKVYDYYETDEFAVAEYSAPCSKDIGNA

[12] = molecular target: bovine casein
[13] = molecular target: Mca fluorogenic peptide substrate M-2255
[14] = molecular target: rat tail tendon type I gelatin
[15] = molecular target: Mca fluorogenic peptide substrate M-2225
[16] = molecular target: Mca fluorogenic peptide substrate M-2110

Sequence of MMP-9 (P14780 94-707): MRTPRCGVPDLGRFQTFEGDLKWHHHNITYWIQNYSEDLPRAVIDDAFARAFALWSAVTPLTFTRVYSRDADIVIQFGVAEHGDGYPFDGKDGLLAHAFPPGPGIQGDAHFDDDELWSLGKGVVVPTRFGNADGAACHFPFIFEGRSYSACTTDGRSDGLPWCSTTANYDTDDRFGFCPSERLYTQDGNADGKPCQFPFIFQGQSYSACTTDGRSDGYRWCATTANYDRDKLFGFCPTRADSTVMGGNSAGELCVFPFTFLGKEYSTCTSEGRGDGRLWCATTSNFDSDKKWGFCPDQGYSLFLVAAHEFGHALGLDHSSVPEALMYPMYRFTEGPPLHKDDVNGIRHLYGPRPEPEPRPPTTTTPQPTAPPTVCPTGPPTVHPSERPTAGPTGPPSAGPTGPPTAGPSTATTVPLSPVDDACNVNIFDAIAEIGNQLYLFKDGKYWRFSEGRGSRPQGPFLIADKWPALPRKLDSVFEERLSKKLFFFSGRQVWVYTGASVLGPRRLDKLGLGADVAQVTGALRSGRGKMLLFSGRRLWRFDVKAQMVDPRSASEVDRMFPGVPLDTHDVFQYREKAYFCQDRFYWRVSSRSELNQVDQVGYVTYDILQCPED
Sequence of MMP-8 (P22894 101-467): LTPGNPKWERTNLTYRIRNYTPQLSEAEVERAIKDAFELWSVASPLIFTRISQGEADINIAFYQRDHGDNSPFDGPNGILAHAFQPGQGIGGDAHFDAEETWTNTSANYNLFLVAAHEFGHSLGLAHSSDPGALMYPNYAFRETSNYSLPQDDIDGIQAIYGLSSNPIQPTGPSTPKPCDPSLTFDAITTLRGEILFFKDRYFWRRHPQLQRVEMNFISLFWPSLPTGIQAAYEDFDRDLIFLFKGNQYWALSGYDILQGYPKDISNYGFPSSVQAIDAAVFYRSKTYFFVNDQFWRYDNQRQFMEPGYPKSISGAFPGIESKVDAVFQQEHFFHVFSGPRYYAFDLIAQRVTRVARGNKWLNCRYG
Sequence of MMP-1 (P03956 100-469): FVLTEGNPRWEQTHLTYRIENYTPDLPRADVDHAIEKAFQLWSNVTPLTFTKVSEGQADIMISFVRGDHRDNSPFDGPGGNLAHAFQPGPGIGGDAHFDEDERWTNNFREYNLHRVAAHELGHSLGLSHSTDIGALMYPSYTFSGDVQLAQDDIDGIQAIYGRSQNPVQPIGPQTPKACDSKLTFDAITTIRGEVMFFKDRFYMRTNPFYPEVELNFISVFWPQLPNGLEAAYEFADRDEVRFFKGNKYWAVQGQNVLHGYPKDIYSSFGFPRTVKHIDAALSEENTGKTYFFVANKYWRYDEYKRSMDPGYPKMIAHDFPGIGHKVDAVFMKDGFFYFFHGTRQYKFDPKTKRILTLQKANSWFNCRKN
Sequence of MMP-3 (P08254 100-477): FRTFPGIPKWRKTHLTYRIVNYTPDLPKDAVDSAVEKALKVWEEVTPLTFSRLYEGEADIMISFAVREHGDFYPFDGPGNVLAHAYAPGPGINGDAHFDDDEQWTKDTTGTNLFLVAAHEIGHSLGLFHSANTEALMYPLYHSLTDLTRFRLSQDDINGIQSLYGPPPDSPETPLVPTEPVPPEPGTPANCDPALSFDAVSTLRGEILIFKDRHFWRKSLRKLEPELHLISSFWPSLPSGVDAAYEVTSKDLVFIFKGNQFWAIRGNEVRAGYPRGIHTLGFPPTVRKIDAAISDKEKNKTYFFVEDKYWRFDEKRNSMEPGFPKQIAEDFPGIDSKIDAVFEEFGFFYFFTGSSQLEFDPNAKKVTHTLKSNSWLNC

## [Cl][Hg][Cl] [HgCl2]
[1]; 10 mM inhibitor
  blockage of hADAM-19 digestion of α2-M: completely blocked
[1]
  blockage of hADAM-19 proteolytic activity against α2-M: blocked completely

## CC(C)C[C@@H](NC(=O)[C@@H]1CCCN1C(=O)CNC(=O)c1ccc(N)cc1)C(=O)N[C@H](C)C(=O)NO [MMP inhibitor I] (H-[4Abz]GP[dL][dA]-{NHOH})
[2]
  IC50: 150 µM
[1]; 1 mM inhibitor
  blockage of hADAM-19 digestion of α2-M: did not block
[3]
  IC50: 30 µM
[4]
  IC50: 1 µM
[5]
  IC50: 1 µM

## COc1ccc(S(=O)(=O)N(CC(=O)NO)CC(C)C)cc1 [MMP-3 inhibitor II, N-Isobutyl-N-(4-methoxyphenylsulfonyl)-glycylhydroxamic acid]
[1]; 100 µM inhibitor
  blockage of hADAM-19 digestion of α2-M: partially blocked
[1]; 1 mM inhibitor
  blockage of hADAM-19 digestion of α2-M: partially blocked

## C[C@H](Sc1nc(N)cc(Cl)n1)c1cc2ccoc2cn1 [PNU-142721]
[6]
  activity against K103N mutants: active against K103N mutants
[7]
  activity relative to delavirdine: 20- to 50 fold

## TIMP-1: tissue inhibitor of metalloproteinases
[1]; TIMP:hADAM-19 molar ratio of 100:1
  blockage of hADAM-19 digestion of α2-M: Neither TIMP-1 or TIMP-2 at TIMP:hADAM-1 9 molar ratio of 100:1 were able to block
[1]
  blockage of hADAM-19 proteolytic activity against α2-M: not blocked

## Trypsin
[8]
  cleavage of α2-M (SDS-PAGE, silver staining): Trypsin was used as a positive proteinase control to cleave α2-M and it generated a 72 kDa major band and a 35 kDa minor band

B1: Flag-tagged hADAM-19 protein (residues 26-701 of SEQ ID NO: 9) (protein)
chain: REPGWTRGSEEGSPKLQHELIIPQWKTSESPVREKHPLKAELRVMAEGRELILDLEKNEQLFAPSYTETHYTSSGNPQTTTRKLEDHCFYHGTVRETELSSVTLSTCRGIRGLITVSSNLSYVIEPLPDSKGQHLIYRSEHLKPPPGNCGFEHSKPTTRDWALQFTQQTKKRPRRMKREDLNSMKYVELYLVADYLEFQKNRRDQDATKHKLIEIANYVDKFYRSLNIRIALVGLEVWTHGNMCEVSENPYSTLWSFLSWRRKLLAQKYHDNAQLITGMSFHGTTIGLAPLMAMCSVYQSGGVNMDHSENAIGVAATMAHEMGHNFGMTHDSADCCSASAADGGCIMAAATGHPFPKVFNGCNRRELDRYLQSGGGMCLSNMPDTRMLYGGRRCGNGYLEDGEECDCGEEEECNNPCCNASNCTLRPGAECAHGSCCHQCKLLAPGTLCREQARQCDLPEFCTGKSPHCPTNFYQMDGTPCEGGQAYCYNGMCLTYQEQCQQLWGPGARPAPDLCFEKVNVAGDTFGNCGKDMNGEHRKCNMRDAKCGKIQCQSSEARPLESNAVPIDTTIIMNGRQIQCRGTHVYRGPEEEGDMLDPGLVMTGTKCGYNHICFEGQCRNTSFFETEGCGKKCNGHGVCNNNQNCHCLPGWAPPFCNTPGHGGSIDSGPMPPESVG
[9]
  fluorogenic peptide substrate cleavage: Neither were the 5 different synthetic fluorogenic peptide substrates listed in the Materials and Methods
[10]
  fluorogenic peptide substrate cleavage: Neither were the 5 different synthetic fluorogenic peptide substrates listed in the Materials and Methods
[11]
  cleavage of α2-M (SDS-PAGE, silver staining): Human hADAM-19 cleaved α2-M to yield new bands of 105 kDa and a 72 kDa
  proteolysis of alpha-2 macroglobulin: a polypeptide corresponding to this gene displayed metal-dependant proteolysis of alpha-2 macroglobulin
[12]
  substrate digestion: rat tail tendon type I gelatin and bovine casein, were not dissolved by hADAM-19
[13]
  fluorogenic peptide substrate cleavage: Neither were the 5 different synthetic fluorogenic peptide substrates listed in the Materials and Methods
[14]
  substrate digestion: rat tail tendon type I gelatin and bovine casein, were not dissolved by hADAM-19
[15]
  fluorogenic peptide substrate cleavage: Neither were the 5 different synthetic fluorogenic peptide substrates listed in the Materials and Methods
[16]
  fluorogenic peptide substrate cleavage: Neither were the 5 different synthetic fluorogenic peptide substrates listed in the Materials and Methods
